The nature of this series: label from the status in PepcDB records.
For “MNINLSVPYAAEGPGPTINTLGQVDGEDVVSISSADLDETEGNLNMTTVSVRSGMTLSQVISRWLFTDDTIVPIEQVFPPGQSTEEVEESNRTAFISSESSATIAAMNYLNIPVEVEVAEVLTDSAATGIFEPGDKLLSIDGTAISTPGDAQTIVRSKAPGDEITISYERNDAESQATITLREHPDDSSVALLGISMLSVPSSAIEVDYNLEDIGGPSAGMMFSLAVVDKLSPGALNGGKFVAGTGTIAEDGSVGPIGGIAHKVRAAEDAGAEVFLSPADNCAEAMSAKPQDMTILKVDSLSQAIDQMAAYNEGLEHHHHHH”, the protein production entry is listed as “not failed”.

Consider “MNISEMDSFDVTGFVIRTTNADEVSPSTAKIGELWARFYANAAPKLNEKSKVFGLYTNYGSDFTGAFDVIACSDTLSPEILPDSVKVTVAPGKYVTFSATGEMPQVVIELWGDVWRYFGSESCPYKRAYTTDFEYYKSASEVEISIAIK”, for which the protein production entry is “failed”.

In the case of “MNISIFKEKSLKWQLLRRMFLLLICFLIILEIFQYFFLRHYICKDKEMLLESRINNVAHLMTTIDSEASLKKNSGYLIKKSLYFDTTSSVIDKNGNVLLFHIKDKHPTSPPIISASEYKAIMKREGNLEGYTITKNKCGEPQITIWRKIGNLNSPLGLIQLTTPYHSAAQFLYKQIYIYIVACVLILILSILIGGTLIKHTLKPLYRIAHTLNNLTVGDLNKRLSENNNQVEIDHLATAFNNMFSRIEISFNREKELKKKMQQFISDASHELRTPLTSIRGFVEVLLIGSYKDEKKLKLALNTILIESERLTELVNNLLTLTRLDRSTHTEMTKQNMSDIIEEIYPQLKILAKNRQVNLNLYDNNAYFLGNKNQIKQVIFNIVQNSINYTDKETGIITLSLSIEDTLFILKISDNGIGIASKDLPHIFDRFFRSETHRSRESGGYGLGLSIAKSIIQSHGGEISTKSIINQGTSFYIKLKRI”, the protein production entry is on record as “failed”.

“MNISPKAIKVRNIWIGGTEPCICAPVVGEDDRKVLREAEEVCRKQPDLLEWRADFFRAIDDQERVLATANGLRNIAGEIPILFTIRSEREGGQPIPLNEAEVRRLIEAICRSGAIDLVDYELAYGERIADVRRMTEECSVWLVVSRHYFDGTPRKETLLADMRQAERYGADIAKVAVMPKSPEDVLVLLQATEEARRELAIPLITMAMGGLGAITRLAGWLFGSAVTFAVGNQSSAPGQIPIDDVRTVLSILQTYSR”: the protein production result was “not failed”.

On to “MNITKAFCLSIALLGASNMQAITNSDFVIQQDNTKINNYQTNRPETSKRLFVSQAVEQQIAHIKQLLTNARLAWMFENCFPNTLDTTVHFDGKDDTFVYTGDIHAMWLRDSGAQVWPYVQLANKDAELKKMLAGVIKRQFKCINIDPYANAFNMNSEGGEWMSDLTDMKPELHERKWEIDSLCYPIRLAYHYWKTTGDASIFSDEWLTAIAKVLKTFKEQQRKEDPKGPYRFQRKTERALDTMTNDGWGNPVKPVGLIASAFRPSDDATTFQFLVPSNFFAVTSLRKAAEILNTVNKKPDLAKECTTLSNEVETALKKYAVYNHPKYGKIYAFEVDGFGNQLLMDDANVPSLIALPYLGDVKVNDPIYQNTRKFVWSEDNPYFFKGTAGEGIGGPHIGYDMIWPMSIMMKAFTSQNDAEIKTCIKMLMDTDAGTGFMHESFHKNDPKNFTRSWFAWQNTLFGELILKLVNEGKVDLLNSIQLEHHHHHH”, for which the protein production entry is on record as “failed”.

For “MNITLAVLQLEDIPQAKQFAIRTRQLLFPDVYQLALPYDLTHFQDVYLHDQKGACFVVKDQQHNIIGMIAYRAYNHRFALDIPKDSVEVVKLFIQPEYRRQGLASRLCEALFGYAAQQKIKYFYLHTHPFLPAAEYFWTKQGFDVIHREEIQNYDTIHMFKSA”, the protein production entry is listed as “failed”.

With “MNIVKLMVIIIYLIIGSALGIIIIPEIANDLGLQNSSFLKNHYVDGIIGSIFMFLIFGVFIRRVTNAIKGLEHFIMRRSAVEILFATIGLIIGLLISVMVSFILESIGNSIFNHFIPVIITILLCYFGFQFGLKKRDEMLMFLPENIARSMSQHTKSATPKIIDTSAIIDGRILEVIRCGFIDGNILIPQGVINELQIVADSNDSVKREKGKRGLDILNELYDLDYPTKVIHPTKTHSDIDTMLLKLAKQYHASIITTDFNLNKVCHVHGIKALNVNDLSEAIKPNVHQGDQLHILLTKMGKEPGQAVGYLDDGTMVVVDNAKNLIGSHVNLEVVSLLQTSSGRIVFAKKIEDTVSLLEHHHHHH”, the protein production result is “failed”.

Regarding “MNKDLKAIKWFITTQILKDPFNPAYATFKVTSRCNLRCTFCSPSYYSGELGEGSTERVKKIIDNLRDSSIVVLSFEGGEPTYRPDILDLLEYAHDGSFYIMLTTNGYRLKDEDFLTKLADKIDFLHYSIDEYHWNVKELENLCRFRKYGLKVNVQTVVTRYNLYKLEEKVRKVAECGYKILAMPAVDYPNSKVKLAPDPYEFYKVLYDLKRKYGSTLNNSWGFINAIIGKVPKRVVSYAITIYPNGDLPYPDDINGEIVGNVAEEPLNKILQSSKVKELQQKMLENQAKFEYLHLQTASFNNIRDLASYVSEMLRWRFTGRA”, the protein production result is on record as “failed”.

As for “MNKEMTLLPPPELVQYVGGDFKKVGKEFLKHFIQIGALKSNEKVLDVGCGVGRMAVPLMNYLNDDGAYYGFDLFKDGITWCQNNISTMRNNFHFEHVDIYNQFYNPEGKEDASQYRFPYEDGTFDFIFLTSVFTHLLPKELEHYVSEIVRVLKKDGRCFITFFLINPESSYYLNAGQSTLGFYHRIENCYVVNKDIPNFAVAYPETDICNLLNKYGLEIINKPHYGLWCGRHEYTSYQDIVLTKKSLEHHHHHH”, the protein production entry is listed as “failed”.

Regarding “MNKERGMKGTCLCGAIEVIAEPKNEVSLCHCSMCRKWSSGALHAVHCGPEVTFKGAEPKRYQSSDWAVRGFCGECGTNLFYHLLPTNEYILSAGLFDNPDFKLTLEIFTDEKPGYYELNPHSKKMTAQEVYDQFVPKE”, the protein production result is reported as “failed”.

In the case of “MNKFELYHPILTEHFALDWLTHSKVRDIFELRHDPEIAKASDRDIDATIEDTTTYVNQMMRLVMNNEALIWGITDQNTHEFLGTFCIWDFDQAQKSASVRFEILRNQQHKGIMSEVLRRMSIFSFEELGLEKLFATALKNNTIARTLLEQVGFSAVASQTDNQNITLELNRH”, the protein production result was “failed”.

In the case of “MNKFGAEKIFIEKQSGATITHRPIFQEALDFVRAQDIFIVEAIDRLGRNYDEIIDSVNYLKKKNVRLIITSLPIMAEAIGNPLLDKFIKDLIIQILAMIAEQERTESKRRQAQGIKIAKANGVYKGRPKLYSADTKDPQRRLVYKSIVQDLKNGVAISKIAKDYNITRQTIYRIKKEIHELEIN”, the protein production entry is recorded as “failed”.

Consider “MNKFLTTIIIKSKCSLLFISSINDSFIYIIRRMINANWSNFTLSWSIARNYWYYFRKCLDGRPFTVFLTSYQIFSTSFCKGNMFYVISSLIIFIQIMNCFLEHHHHHH”, for which the protein production result is on record as “failed”.

“MNKHASQPRAIYYVVALQIWEYFSFYGMRALLILYLTNQLKYNDTHAYELFSAYCSLVYVTPILGGFLADKVLGNRMAVMLGALLMAIGHVVLGASEIHPSFLYLSLAIIVCGYGLFKSNVSCLLGELYEPTDPRRDGGFSLMYAAGNVGSIIAPIACGYAQEEYSWAMGFGLAAVGMIAGLVIFLCGNRHFTHTRGVNKKVLRATNFLLPNWGWLLVLLVATPALITILFWKEWSVYALIVATIIGLGVLAKIYRKAENQKQRKELGLIVTLTFFSMLFWAFAQQGGSSISLYIDRFVNRDMFGYTVPTAMFQSINAFAVMLCGVFLAWVVKESVAGNRTVRIWGKFALGLGLMSAGFCILTLSARWSAMYGHSSLPLMVLGLAVMGFAELFIDPVAMSQITRIEIPGVTGVLTGIYMLLSGAIANYLAGVIADQTSQASFDASGAINYSINAYIEVFDQITWGALACVGLVLMIWLYQALKFRNRALALES”: the protein production result is recorded as “failed”.
